The labels stand for the following.
B1: FLAG-tagged KaiC-WT (enzyme)
chain: MTSAEMTSPNNNSEHQAIAKMRTMIEGFDDISHGGLPIGRSTLVSGTSGTGKTLFSIQFLYNGIIEFDEPGVFVTFEETPQDIIKNARSFGWDLAKLVDEGKLFILDASPDPEGQEVVGGFDLSALIERINYAIQKYRARRVSIDSVTSVFQQYDASSVVRRELFRLVARLKQIGATTVMTTERIEEYGPIARYGVEEFVSDNVVILRNVLEGERRRRTLEILKLRGTSHMKGEYPFTITDHGINIFPLGAMRLTQRSSNVRVSSGVVRLDEMCGGGFFKDSIILATGATGTGKTLLVSRFVENACANKERAILFAYEESRAQLLRNAYSWGMDFEEMERQNLLKIVCAYPESAGLEDHLQIIKSEINDFKPARIAIDSLSALARGVSNNAFRQFVIGVTGYAKQEEITGLFTNTSDQFMGAHSITDSHISTITDTIILLQYVEIRGEMSRAINVFKMRGSWHDKAIREFMISDKGPDIKDSFRNFERIISGSPTRITVDEKSELSRIVRGVQEKGPES
B2: His-tagged KaiC-AA (enzyme)
chain: MTSAEMTSPNNNSEHQAIAKMRTMIEGFDDISHGGLPIGRSTLVSGTSGTGKTLFSIQFLYNGIIEFDEPGVFVTFEETPQDIIKNARSFGWDLAKLVDEGKLFILDASPDPEGQEVVGGFDLSALIERINYAIQKYRARRVSIDSVTSVFQQYDASSVVRRELFRLVARLKQIGATTVMTTERIEEYGPIARYGVEEFVSDNVVILRNVLEGERRRRTLEILKLRGTSHMKGEYPFTITDHGINIFPLGAMRLTQRSSNVRVSSGVVRLDEMCGGGFFKDSIILATGATGTGKTLLVSRFVENACANKERAILFAYEESRAQLLRNAYSWGMDFEEMERQNLLKIVCAYPESAGLEDHLQIIKSEINDFKPARIAIDSLSALARGVSNNAFRQFVIGVTGYAKQEEITGLFTNTSDQFMGAHSITDSHIAAITDTIILLQYVEIRGEMSRAINVFKMRGSWHDKAIREFMISDKGPDIKDSFRNFERIISGSPTRITVDEKSELSRIVRGVQEKGPES
B3: His-tagged KaiC-DA (enzyme)
chain: MTSAEMTSPNNNSEHQAIAKMRTMIEGFDDISHGGLPIGRSTLVSGTSGTGKTLFSIQFLYNGIIEFDEPGVFVTFEETPQDIIKNARSFGWDLAKLVDEGKLFILDASPDPEGQEVVGGFDLSALIERINYAIQKYRARRVSIDSVTSVFQQYDASSVVRRELFRLVARLKQIGATTVMTTERIEEYGPIARYGVEEFVSDNVVILRNVLEGERRRRTLEILKLRGTSHMKGEYPFTITDHGINIFPLGAMRLTQRSSNVRVSSGVVRLDEMCGGGFFKDSIILATGATGTGKTLLVSRFVENACANKERAILFAYEESRAQLLRNAYSWGMDFEEMERQNLLKIVCAYPESAGLEDHLQIIKSEINDFKPARIAIDSLSALARGVSNNAFRQFVIGVTGYAKQEEITGLFTNTSDQFMGAHSITDSHIDAITDTIILLQYVEIRGEMSRAINVFKMRGSWHDKAIREFMISDKGPDIKDSFRNFERIISGSPTRITVDEKSELSRIVRGVQEKGPES
B4: His-tagged KaiC-AE (enzyme)
chain: MTSAEMTSPNNNSEHQAIAKMRTMIEGFDDISHGGLPIGRSTLVSGTSGTGKTLFSIQFLYNGIIEFDEPGVFVTFEETPQDIIKNARSFGWDLAKLVDEGKLFILDASPDPEGQEVVGGFDLSALIERINYAIQKYRARRVSIDSVTSVFQQYDASSVVRRELFRLVARLKQIGATTVMTTERIEEYGPIARYGVEEFVSDNVVILRNVLEGERRRRTLEILKLRGTSHMKGEYPFTITDHGINIFPLGAMRLTQRSSNVRVSSGVVRLDEMCGGGFFKDSIILATGATGTGKTLLVSRFVENACANKERAILFAYEESRAQLLRNAYSWGMDFEEMERQNLLKIVCAYPESAGLEDHLQIIKSEINDFKPARIAIDSLSALARGVSNNAFRQFVIGVTGYAKQEEITGLFTNTSDQFMGAHSITDSHIAEITDTIILLQYVEIRGEMSRAINVFKMRGSWHDKAIREFMISDKGPDIKDSFRNFERIISGSPTRITVDEKSELSRIVRGVQEKGPES

Test [1] deals with mutant KaiC (His-tagged KaiC-AA, -DE, -DA or -AE, as a group). Put plainly: pull-down.
The test “His-tagged KaiC-DA” addresses B3. In words: pull-down.
The target in the test “His-tagged KaiC-AA” is B2. In words: pull-down.
The test “His-tagged KaiC-AE” addresses B4. In words: pull-down.
The target in another test is T1, His-tagged KaiC-WT (Synechococcus elongatus PCC 7942, UniProt Q79PF4 1-519).
T1 sequence: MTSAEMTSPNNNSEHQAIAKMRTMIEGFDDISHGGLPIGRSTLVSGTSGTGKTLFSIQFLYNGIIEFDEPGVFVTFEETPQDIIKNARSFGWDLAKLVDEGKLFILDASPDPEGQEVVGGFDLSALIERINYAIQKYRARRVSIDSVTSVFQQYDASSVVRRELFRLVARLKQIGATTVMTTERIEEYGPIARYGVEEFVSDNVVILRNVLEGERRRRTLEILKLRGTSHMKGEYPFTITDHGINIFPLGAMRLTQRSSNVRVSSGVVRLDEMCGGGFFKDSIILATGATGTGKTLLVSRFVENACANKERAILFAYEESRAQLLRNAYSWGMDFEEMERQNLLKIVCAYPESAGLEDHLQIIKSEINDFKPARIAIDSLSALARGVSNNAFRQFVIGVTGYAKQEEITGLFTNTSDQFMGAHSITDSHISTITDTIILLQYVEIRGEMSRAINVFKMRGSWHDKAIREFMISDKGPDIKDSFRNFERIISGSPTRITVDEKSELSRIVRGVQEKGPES
Put plainly: pull-down.

A further test deals with T2, FLAG-tagged KaiC-E318Q (Synechococcus elongatus PCC 7942, UniProt Q79PF4 1-519, E318Q).
T2 sequence: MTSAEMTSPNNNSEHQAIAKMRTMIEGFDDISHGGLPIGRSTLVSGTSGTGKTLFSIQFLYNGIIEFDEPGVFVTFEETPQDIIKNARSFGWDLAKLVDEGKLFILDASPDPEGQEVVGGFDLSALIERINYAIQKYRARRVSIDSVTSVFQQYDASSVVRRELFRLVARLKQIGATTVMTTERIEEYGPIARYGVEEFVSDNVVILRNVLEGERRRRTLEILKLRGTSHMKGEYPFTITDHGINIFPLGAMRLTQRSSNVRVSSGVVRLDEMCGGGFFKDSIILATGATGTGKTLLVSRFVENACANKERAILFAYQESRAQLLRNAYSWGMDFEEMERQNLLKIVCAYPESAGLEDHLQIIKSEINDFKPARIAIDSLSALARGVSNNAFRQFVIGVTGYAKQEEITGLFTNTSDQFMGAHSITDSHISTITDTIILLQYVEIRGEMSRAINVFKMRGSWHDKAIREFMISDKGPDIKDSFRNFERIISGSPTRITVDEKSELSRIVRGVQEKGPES
Put plainly: co-IP.

For the test “FLAG-tagged KaiC-WT”, the target named is B1. Put plainly: co-IP.

In turn, B1 returned a stoichiometry N in test [1] of 4 to 5. In addition, the binding result with His-tagged KaiC-DA, with His-tagged KaiC-AA, with His-tagged KaiC-AE and with His-tagged KaiC-WT was “binds” in each case.

Regarding B2, in the test with FLAG-tagged KaiC-E318Q, the “stoichiometry N” value came out at 1.

For the molecule B3, in the test with FLAG-tagged KaiC-WT, the “stoichiometry N” value is roughly 1.

For the molecule B4, in the test with FLAG-tagged KaiC-WT, the “stoichiometry N” value was roughly 1.

A word on the stoichiometry N: it is the number of molecules, sites or subunits per partner or assembly.

(Values after article PMC3863973 (Nature Communications, 2013).)
